In patent US20200262913A1 (ZymoGenetics, published 2020):
Changes are numbered by the printed parent chain. In names and notes the source's numbering stands.

B1: humanized 292.12.3.1 construct clone 32 (12VH1-gly + HC(F29L, R71A, V78A, R94F) + LC(F71Y)) (antibody, human IgG4, V domains shown)
VH: QVQLVQSGAEVKKPGASVKVSCKASGYTLTRYWMQWVRQAPGQGLEWMGAIYPGDGDTRYSQKFQGRVTMTADTSISTAYMELSSLRSEDTAVYYCAFPDGYYAAPYGMDYWGQGTLVTVSS
VL: DIQMTQSPSSLSASVGDRVTITCRASGNIHNYLAWYQQKPGKVPKLLIYNAKTLADGVPSRFSGSGSGTDYTLTISSLQPEDVATYYCQHFWSTPWTFGQGTKVEIKR
B2: humanized 292.12.3.1 construct clone 35 (12VH1-gly + HC(F29L, R94F)) (antibody, human IgG4, V domains shown)
VH: B1 VH with A72R, A79V
VL: B1 VL with Y71F
B3: humanized 292.12.3.1 construct clone 33 (12VH1(germ)-gly + fback) (antibody, human IgG4, V domains shown)
VH: B1 VH with M70L, T74K, I76T
VL: B1 VL with G66R, G68E, D70Q, T72S
B4: humanized 292.12.3.1 construct clone 36 (12VH1(germ)-gly + HC(F29L, T73K, R94F) + LC(F71Y)) (antibody, human IgG4, V domains shown)
VH: B1 VH with A72R, T74K, I76T, A79V
VL: B1 VL

biological target: recombinant human IL-31 (C108S), produced in E. coli by ZymoGenetics, MW 18 kDa (human), Q6EBC2; test: cell-based or functional assay

| Average Fold loss in potency relative to 292.12.3.1, BAF-3(hIL-31R) proliferation assay | Average Potency (IC50), inhibition of hIL-31-induced proliferation of BAF-3(hIL-31R) cells | Binder |
| --- | --- | --- |
| 14.7 fold | 18.9 nM | B1 |
| 75.1 fold | 62.1 nM | B2 |
| 2.3 fold | 3.1 nM | B3 |
| – | 14.1 nM | B4 |

biological target: T1, recombinant human IL-31 (hIL-31, BHK produced, A1277F, zcytor17lig CEE) (human, UniProt Q6EBC2 24-164); test: SPR (Biacore), against parent 292.12.3.1
T1 construct: also called recombinant hIL-31
T1 sequence: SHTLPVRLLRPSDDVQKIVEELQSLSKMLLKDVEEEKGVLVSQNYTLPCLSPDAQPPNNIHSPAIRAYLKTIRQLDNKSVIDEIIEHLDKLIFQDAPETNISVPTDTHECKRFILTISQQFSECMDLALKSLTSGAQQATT
Experimental: (§1) The purified monoclonal antibodies were immobilized in individual flow cells on a CM5 type sensor chip. Immobilizations were performed using a standard amine coupling procedure, aiming for an immobilization level of 500 Resonance Units (RU). The antibodies were diluted to 1-5 ug/ml in 10 mM NaAc pH 4.5.
(§2) HPS-EP pH 7.4 (10 mM HEPES, 150 mM NaCl, 3 mM EDTA and 0.005% Polysorbat P20) was used as running buffer, and diluents for the recombinant hIL-31 (hIL-31, BHK produced, A1277F, zcytor17lig CEE). The hIL-31 was tested in a 3-fold dilution series from 333.3 nM to 1.4 nM. Association (injection) was 4 min., followed by a 20 min. dissociation (wash) period. Flow rate was 50 ul/min. Experiments were performed at 25OC. Regeneration of the surface was accomplished by injection of 30 sec. pulse of 10 mM Glycin-HCl pH 1.8 or 1M formic acid, at a 30 ul/min flow rate. Detection in all flow cells simultaneously. Flow cell #1 contained no immobilized antibody, and was used for subtraction of background and bulk.
(§3) The kinetic parameters were calculated by global fitting of the data using a 1:1 langmuir binding model. Data was inspected for mass-transport limitations prior to calculation of the kinetic parameters. In some experiments the Rmax was fitted locally, and the RI constant at 0.

| Relative potency loss (KD) | Relative potency loss (kd) | Binder |
| --- | --- | --- |
| ~0.3 x to parent | – | B1 |
| ~0.7 x to parent | ~1.5 x to parent | B2 |
| ~0.6 x to parent | – | B3 |
| ~0.5 x to parent | ~1.5 x to parent | B4 |

biological target: T1, recombinant human IL-31 (hIL-31, BHK …); test: SPR (Biacore), mAb amine-coupled to CM5 chip, hIL-31 injected
Experimental: as §1, §2, §3

| Kd | koff | kon | Binder |
| --- | --- | --- | --- |
| 0.64 nM | 5.9e-05 s⁻¹ | 93000 M⁻¹ s⁻¹ | B1 |
| 1.6 nM | 0.0001 s⁻¹ | 64000 M⁻¹ s⁻¹ | B2 |
| 1.3 nM | 6.8e-05 s⁻¹ | 52000 M⁻¹ s⁻¹ | B3 |
| 1.6 nM | 0.000108 s⁻¹ | 68000 M⁻¹ s⁻¹ | B4 |

biological target: T2, recombinant human IL-31 (as used in the NHK STAT3 phosphorylation assay of Example 5) (human, UniProt Q6EBC2 24-164, limits assumed); test: cell-based or functional assay
T2 sequence: T1 sequence

| IC50, IL-31-induced STAT3 phosphorylation in NHK, Exp 8 | IC50, IL-31-induced STAT3 phosphorylation in NHK, Exp 9 | IC50, IL-31-induced STAT3 phosphorylation in NHK, Exp 10 | Binder |
| --- | --- | --- | --- |
| 11.5 nM | 6.43 nM | – | B1 |
| – | – | 12 nM | B2 |
| 4.08 nM | 5.68 nM | 13.6 nM | B3 |
| – | – | 8.95 nM | B4 |
